Assay results taken from article PMC12098294.

What was measured:
[1] = target: CD19/NKG2DL tandem CAR with a short hinge (12 amino acids) derived from IgG4 (UniProt P26718); experiment: flow cytometry on cells; CAR-transduced primary T-cells incubated with rhMICA-Avi (detected with Alexa Fluor 647 streptavidin) and/or rhCD19-Fc (detected with anti-human IgG-Fc antibody); MFI read in a subpopulation expressing the CD34 marker at similar level; one ligand alone or both together
[2] = target: CD19/NKG2DL tandem CAR with a short hinge (12 amino acids) derived from CD8α (UniProt P26718); experiment: as above

decrease of MICA binding against the NKG2DL single-targeting CAR [1]: 30%
decrease of MICA binding against the NKG2DL single-targeting CAR [2]: 30%
B1: recombinant human Biotinylated Human MICA Protein, His,Avitag (ligand)
chain: EPHSLRYNLTVLSWDGSVQSGFLTEVHLDGQPFLRCDRQKCRAKPQGQWAEDVLGNKTWDRETRDLTGNGKDLRMTLAHIKDQKEGLHSLQEIRVCEIHEDNSTRSSQHFYYDGELFLSQNLETKEWTMPQSSRAQTLAMNVRNFLKEDAMKTKTHYHAMHADCLQELRRYLKSGVVLRRTVPPMVNVTRSEASEGNITVTCRASGFYPWNITLSWRQDGVSLSHDTQQWGDVLPDGNGTYQTWVATRICQGEEQRFTCYMEHSGNHSTHPVPSGKVLVLQSHW
modifications: biotin (biotinylated protein)
